Experimental data taken from patent US20100068208A1, “Degranulation inhibitor” (priority 2005, published 2010).
Where no end group is shown, it is not given here.

Key:
[1] = molecular target: T1, TGR12-GFP (fused protein of human TGR12 and GFP, encoded by the DNA of SEQ ID NO: 31), stably expressed on … (human, UniProt Q96LB1 1-330); assay: cell-based or functional assay
T1 sequence: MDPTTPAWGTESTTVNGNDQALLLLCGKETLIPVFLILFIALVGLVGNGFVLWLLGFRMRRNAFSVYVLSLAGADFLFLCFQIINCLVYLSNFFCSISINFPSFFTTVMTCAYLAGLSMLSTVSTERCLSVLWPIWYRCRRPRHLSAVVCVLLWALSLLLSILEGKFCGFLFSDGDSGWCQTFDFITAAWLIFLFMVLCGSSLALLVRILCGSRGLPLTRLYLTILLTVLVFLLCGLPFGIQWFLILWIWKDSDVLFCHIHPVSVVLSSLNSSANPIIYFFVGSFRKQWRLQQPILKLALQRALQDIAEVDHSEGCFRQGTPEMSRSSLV

human TGR12 (untagged) = molecular target: T2, human TGR12 (untagged) (human, UniProt Q96LB1 1-330); assay: cell-based or functional assay
T2 sequence: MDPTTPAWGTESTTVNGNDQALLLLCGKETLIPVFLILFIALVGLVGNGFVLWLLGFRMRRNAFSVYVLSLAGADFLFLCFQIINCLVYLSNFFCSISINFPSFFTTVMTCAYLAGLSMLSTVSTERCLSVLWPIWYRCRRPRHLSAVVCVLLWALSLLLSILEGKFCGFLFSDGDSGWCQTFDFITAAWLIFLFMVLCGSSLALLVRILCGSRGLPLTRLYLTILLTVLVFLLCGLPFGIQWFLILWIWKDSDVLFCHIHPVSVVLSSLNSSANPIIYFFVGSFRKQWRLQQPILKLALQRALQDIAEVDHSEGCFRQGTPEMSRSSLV

[2] = molecular target: T3, TGR12-GFP (fused protein of human TGR12 and GFP, encoded by the DNA of SEQ ID NO: 45), stably expressed on … (human, UniProt Q96LB1 1-330); assay: competition with 200 pM [125I]-rCST14 (Y0) on CHO-TGR12GFP cells, Hill plot
T3 construct: also called TGR12-GFP expression CHO cell line; not shown: GFP (Wako Pure Chemical) fused after the C-terminus of TGR12
T3 sequence: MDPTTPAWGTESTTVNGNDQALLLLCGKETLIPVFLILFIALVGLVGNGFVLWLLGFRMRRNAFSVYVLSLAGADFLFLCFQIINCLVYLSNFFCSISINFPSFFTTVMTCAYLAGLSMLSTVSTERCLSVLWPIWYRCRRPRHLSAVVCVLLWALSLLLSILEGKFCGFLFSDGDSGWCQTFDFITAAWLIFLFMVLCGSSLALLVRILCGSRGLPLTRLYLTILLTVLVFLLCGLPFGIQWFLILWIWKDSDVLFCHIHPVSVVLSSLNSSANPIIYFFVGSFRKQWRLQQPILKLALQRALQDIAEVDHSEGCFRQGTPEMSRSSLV
Method: The binding assay using CHO-TGR12GFP was performed as follows. […] After incubation overnight, the cells were washed 3 times with ice-chilled assay buffer (MEM-α, 20 mM HEPES (pH 7.4), 0.05% BSA) and 250 μL of the assay buffer was added thereto. […] After washing 3 times with 500 μL of the assay buffer, the cells were lysed in 250 μL of 0.5N NaOH and the lysate was recovered for measurement of the radioactivity.
Based on the above, non-specific binding was estimated as the activity of 10 μM rat cortistatin-14 and the IC₅₀ value of each peptide was obtained from Hill plot analysis.

Binder | EC50 in the calcium increasing effect on CHO-TGR12 [1] [nM] | maximum activity in the calcium increasing effect (FLIPR), CHO-TGR12, at 0.3 nM [1] [fluorescence intensity] | maximum activity in the calcium increasing effect (FLIPR), CHO-TGR12, at 3 nM [1] [fluorescence intensity] | maximum activity in the calcium increasing effect (FLIPR), CHO-TGR12, at 30 nM [1] [fluorescence intensity] | maximum activity in the calcium increasing effect (FLIPR), CHO-TGR12, at 300 nM [1] [fluorescence intensity] | maximum activity in the calcium increasing effect (FLIPR), CHO-TGR12, at 3000 nM [1] [fluorescence intensity] | EC50 in the degranulation on LAD 2 (human TGR12 (untagged)) [nM] | degranulation of LAD 2 (beta-hexosaminidase release, % of total) at 10 nM (human TGR12 (untagged)) [%] | degranulation of LAD 2 (beta-hexosaminidase release, % of total) at 30 nM (human TGR12 (untagged)) [%] | degranulation of LAD 2 (beta-hexosaminidase release, % of total) at 100 nM (human TGR12 (untagged)) [%] | degranulation of LAD 2 (beta-hexosaminidase release, % of total) at 300 nM (human TGR12 (untagged)) [%] | degranulation of LAD 2 (beta-hexosaminidase release, % of total) at 3 µM (human TGR12 (untagged)) [%] | maximum activity in the calcium increasing effect (FLIPR), RBL2H3-TGR12, at 1 nM (human TGR12 (untagged)) [fluorescence intensity] | maximum activity in the calcium increasing effect (FLIPR), RBL2H3-TGR12, at 10 nM (human TGR12 (untagged)) [fluorescence intensity] | maximum activity in the calcium increasing effect (FLIPR), RBL2H3-TGR12, at 100 nM (human TGR12 (untagged)) [fluorescence intensity] | maximum activity in the calcium increasing effect (FLIPR), RBL2H3-TGR12, at 1 µM (human TGR12 (untagged)) [fluorescence intensity] | maximum activity in the calcium increasing effect (FLIPR), RBL2H3-TGR12, at 10 µM (human TGR12 (untagged)) [fluorescence intensity] | IC50 [2] [nM] | degranulation of LAD 2 (beta-hexosaminidase release, % of total) at 1 µM (human TGR12 (untagged)) [%]
HSDGIFTDSYSRYRKQMAVKKYLAAVL (peptide, UniProt P18509 132-158, looked up, not fully specified; ends and bridges not checked, domain: PACAP-27) [human PACAP27 (pituitary adenylate cyclase activating polypeptide 27)] | ~93 | 48 | 58 | 939 | 23000 | 23700 | ~51 | 2.6 | 19.6 | 59.4 | 71.1 | 69.1 | 40 | 29 | 5300 | 11500 | 12700 | 264 | 
HSDGIFTDSYSRYRKQMAVKKYLAAVLGKRYKQRVKNK (peptide, UniProt P18509 132-169, looked up, not fully specified; ends and bridges not checked, domain: PACAP-38) [human PACAP38 (pituitary adenylate cyclase activating polypeptide 38)] | ~161 | 287 | 410 | 195 | 23000 | 23300 | ~51 | 7.4 | 24.8 | 49.4 | 65.8 | 63.3 |  |  |  |  |  | 47 | 68.9
